Laboratory results published in patent US20240417450A1 (UNIVERSITY OF TOKYO, published 2024).

B1: RS_H007_L001 (antibody, V domains shown)
VH: EVQLQQSGSELVKSGASVKLSCTVSGFNFTNYYIHWVRQRTEQGLEWIGRIDPENNQTTYAPKFQGKATMTADTSSNTAYLQLTSLTSEDTAVYYCARSTVLDYWGHGTTLTVSS
VL: DVLMTQSPASLSVSLGDRATISCRASQSIVHTNGNTYLEWYLQKPGQSPKLLIYKVSNRFSGVPDRFSGSGSGTDFILKISRVEAEDLGVYYCFQGSHVPPTFGGGTKLEVK
B2: RS_H000_L001 (antibody, V domains shown)
VH: EVQLQQSGSELVKSGASVKLSCTVSGFNFTDYYIHWVRQRTEQGLEWIGRIDPENDETTYAPKFQGKATMTADTSSNTAYLQLTSLTSEDTAVYYCARSTVLDYWGHGTTLTVSS
VL: DVLMTQSPASLSVSLGDRATISCRASQSIVHTNGNTYLEWYLQKPGQSPKLLIYKVSNRFSGVPDRFSGSGSGTDFILKISRVEAEDLGVYYCFQGSHVPPTFGGGTKLEVK
notes: recombinant multimeric IgA made with H, L and J chain vectors (mainly dimers by SDS-PAGE); also called rW27
B3: RS_H000_L005 (antibody, V domains shown)
VH: EVQLQQSGSELVKSGASVKLSCTVSGFNFTDYYIHWVRQRTEQGLEWIGRIDPENDETTYAPKFQGKATMTADTSSNTAYLQLTSLTSEDTAVYYCARSTVLDYWGHGTTLTVSS
VL: DVLMTQSPASLSVSLGDRATISCRSSQSIVHTNGNTYLEWYLQKPGQSPKLLIYKVSNRFSGVPDRFSGSGSGTDFILKISRVEAEDLGVYYCFQGSHVPPTFGGGTKLEVK
B4: RS_H007_L002 (antibody, V domains shown)
VH: EVQLQQSGSELVKSGASVKLSCTVSGFNFTNYYIHWVRQRTEQGLEWIGRIDPENNQTTYAPKFQGKATMTADTSSNTAYLQLTSLTSEDTAVYYCARSTVLDYWGHGTTLTVSS
VL: DVLMTQSPASLSVSLGDRVTISCRASQSIVHTNGNTYLEWYLQKPGQSPKLLIYKVSNRFSGVPDRFSGSGSGTDFILKISRVEAEDLGVYYCFQGSHVPPTFGGGTKLEVK
B5: RS_H007_L004 (antibody, V domains shown)
VH: EVQLQQSGSELVKSGASVKLSCTVSGFNFTNYYIHWVRQRTEQGLEWIGRIDPENNQTTYAPKFQGKATMTADTSSNTAYLQLTSLTSEDTAVYYCARSTVLDYWGHGTTLTVSS
VL: DVLMTQSPASMSVSLGDRATISCRSSQSIVHTNGNTYLEWYLQKPGQSPKLLIYKVSNRFSGVPDRFSGSGSGTDFILKISRVEAEDLGVYYCFQGSHVPPTFGGGTKLEVK
B6: RS_H007_L005 (antibody, V domains shown)
VH: EVQLQQSGSELVKSGASVKLSCTVSGFNFTNYYIHWVRQRTEQGLEWIGRIDPENNQTTYAPKFQGKATMTADTSSNTAYLQLTSLTSEDTAVYYCARSTVLDYWGHGTTLTVSS
VL: DVLMTQSPASLSVSLGDRATISCRSSQSIVHTNGNTYLEWYLQKPGQSPKLLIYKVSNRFSGVPDRFSGSGSGTDFILKISRVEAEDLGVYYCFQGSHVPPTFGGGTKLEVK
B7: W27G2 antibody (mouse hybridoma-producing IgA) (antibody, V domains shown)
VH: EVQLQQSGSELVKSGASVKLSCTVSGFNFTDYYIHWVRQRTEQGLEWIGRIDPENDETTYAPKFQGKATMTADTSSNTAYLQLTSLTSEDTAVYYCARSTVLDYWGHGTTLTVSS
VL: DVLMTQTPLSLPVSLGDQASISCRASQSIVHTNGNTYLEWYLQKPGQSPKLLIYKVSNRFSGVPDRFSGSGSGTDFILKISRVEAEDLGVYYCFQGSHVPPTFGGGTKLEVKR
notes: Hybridoma-producing IgA from intestinal mucosa lamina propria B cells; also called W27 antibody; W27G2-CHT
B8: RS_H000_L000GR Fab (Fab, V domains shown)
VH: EVQLQQSGSELVKSGASVKLSCTVSGFNFTDYYIHWVRQRTEQGLEWIGRIDPENDETTYAPKFQGKATMTADTSSNTAYLQLTSLTSEDTAVYYCARSTVLDYWGHGTTLTVSS
VL: DVLMTQTPLSLPVSLGDQASISCRASQSIVHTNGNTYLEWYLQKPGQSPKLLIYKVSNRFSGVPDRFSGSGSGTDFILKISRVEAEDLGVYYCFQGSHVPPTFGGGTKLEVK
notes: Fab made by papain digestion of the W27 recombinant IgG expressed in CHO cells; also called IgG W27 Fab

What was measured:
[1] = target: T1, E. coli wild-type SHMT, GST fusion protein (E. coli, UniProt P0A825 1-417); test: ELISA, GST fusion protein immobilised at 2 ug/ml, antibody dilution series
T1 construct: Overexpressed in E. coli as a GST fusion protein, purified and immobilised on the ELISA plate at 2 ug/ml; not shown: Glutathione-S-transferase (GST) fusion partner
T1 sequence: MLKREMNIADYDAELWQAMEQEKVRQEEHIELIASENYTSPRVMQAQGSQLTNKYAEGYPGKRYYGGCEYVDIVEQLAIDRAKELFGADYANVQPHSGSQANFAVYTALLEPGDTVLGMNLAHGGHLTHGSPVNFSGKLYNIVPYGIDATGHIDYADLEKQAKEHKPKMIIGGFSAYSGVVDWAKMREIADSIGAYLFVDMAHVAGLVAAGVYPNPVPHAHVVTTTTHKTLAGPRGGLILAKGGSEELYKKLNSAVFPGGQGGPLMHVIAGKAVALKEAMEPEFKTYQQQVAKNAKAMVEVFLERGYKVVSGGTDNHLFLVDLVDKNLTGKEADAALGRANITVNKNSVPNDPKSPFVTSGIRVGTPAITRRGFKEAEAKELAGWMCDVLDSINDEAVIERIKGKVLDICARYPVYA

E. coli iPGM = target: T2, E. coli iPGM (E. coli, UniProt P37689 1-514, limits assumed); test: Western blot
T2 sequence (looked up): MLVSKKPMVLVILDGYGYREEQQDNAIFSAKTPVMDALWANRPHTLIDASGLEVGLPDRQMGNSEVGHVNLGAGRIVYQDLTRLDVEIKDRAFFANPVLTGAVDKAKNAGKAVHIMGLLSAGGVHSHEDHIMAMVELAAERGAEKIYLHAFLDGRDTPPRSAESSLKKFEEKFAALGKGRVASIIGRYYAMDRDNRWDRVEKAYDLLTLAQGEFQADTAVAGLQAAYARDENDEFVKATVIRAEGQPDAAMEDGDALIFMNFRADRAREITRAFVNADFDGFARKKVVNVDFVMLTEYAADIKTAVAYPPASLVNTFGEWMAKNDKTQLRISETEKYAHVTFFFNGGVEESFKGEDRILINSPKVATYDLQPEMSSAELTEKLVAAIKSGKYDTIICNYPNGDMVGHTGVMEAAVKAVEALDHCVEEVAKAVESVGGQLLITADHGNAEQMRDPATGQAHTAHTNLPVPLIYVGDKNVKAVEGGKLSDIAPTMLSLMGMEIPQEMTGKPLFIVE

E. coli SHMT (25-45) = target: T3, E. coli SHMT (25-45) (E. coli); test: X-ray crystal structure of the Fab-peptide complex
T3 construct: Final purified peptide used for crystallisation
T3 peptide: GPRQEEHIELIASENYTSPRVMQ

[2] = target: T4, C. difficile iPGM (486-509) (C. difficile); test: X-ray crystal structure of the Fab-peptide complex
T4 construct: Final purified peptide used for crystallisation
T4 peptide: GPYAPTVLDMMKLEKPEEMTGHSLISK

Binder | binding result [1] | also measured
B1 | binds | –
B2 | binds | –
B3 | binds | –
B4 | binds | –
B5 | binds | –
B6 | binds | –
B7 | binds | binding result (E. coli iPGM): no binding
B8 | – | binding result (E. coli SHMT (25-45)): binds; binding result [2]: binds
